Eight molecules from publication PMC5992148, “Molecular principles underlying dual RNA specificity in the Drosophila SNF protein” can be followed below.

The target in data set [1] is T1, dSNF1-101 (RRM1) (UniProt P43332 1-101).
T1 sequence: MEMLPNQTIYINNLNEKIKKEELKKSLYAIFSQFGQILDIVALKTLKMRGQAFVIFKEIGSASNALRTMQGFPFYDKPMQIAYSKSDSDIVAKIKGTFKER
Briefly: NMR chemical shift perturbation; 300 uM protein, 700 uM RNA; ITC: 150 mM KCl, 1 mM MgCl2, 20 mM HEPES-NaOH pH 7.5, 5% glycerol, 10 C; NMR: 50 mM KCl, 20 mM sodium cacodylate pH 6.5, 2 mM EDTA, 23 C; filter binding: KCl varied, other conditions not stated. As to conditions: protein: recombinant; tags: none stated; hairpin.

The target in data set [2] is T2, dSNF1-96 (RRM1) (Drosophila melanogaster, UniProt P43332 1-96).
T2 sequence: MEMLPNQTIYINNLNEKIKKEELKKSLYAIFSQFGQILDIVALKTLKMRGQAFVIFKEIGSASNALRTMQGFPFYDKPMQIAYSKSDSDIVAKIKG
The experiment in a line: ITC; 1 mM Mg2+, 10 C; n 0.894; ITC: 150 mM KCl, 1 mM MgCl2, 20 mM HEPES-NaOH pH 7.5, 5% glycerol, 10 C; NMR: 50 mM KCl, 20 mM sodium cacodylate pH 6.5, 2 mM EDTA, 23 C; filter binding: KCl varied, other conditions not stated. To be noted: protein: recombinant; tags: N-terminal His6, TEV-cleaved; hairpin, 10-nt loop, 9-bp blunt stem. Background: ITC needs no label: the signal is the heat of the interaction.

The target in data set [3] is T1, dSNF1-101 (RRM1). Briefly: filter binding; without dU2A'; ITC: 150 mM KCl, 1 mM MgCl2, 20 mM HEPES-NaOH pH 7.5, 5% glycerol, 10 C; NMR: 50 mM KCl, 20 mM sodium cacodylate pH 6.5, 2 mM EDTA, 23 C; filter binding: KCl varied, other conditions not stated. As to conditions: protein: recombinant; tags: none stated; label: 32P internal; hairpin.
Data set [4] deals with T2, dSNF1-96 (RRM1). The experiment in a line: ITC; 1 mM Mg2+, 10 C; n 0.781; ITC: 150 mM KCl, 1 mM MgCl2, 20 mM HEPES-NaOH pH 7.5, 5% glycerol, 10 C; NMR: 50 mM KCl, 20 mM sodium cacodylate pH 6.5, 2 mM EDTA, 23 C; filter binding: KCl varied, other conditions not stated. To be noted: protein: recombinant; tags: N-terminal His6, TEV-cleaved; hairpin, 11-nt loop, U:G closing pair, blunt.

In data set [5] the target is Drosophila U2A′ (dU2A′), triple cysteine variant, produced apart from dSNF (Drosophila melanogaster) (UniProt Q9V4Q8). The experiment in a line: ITC; dU2A′ as the sample (2.5 µM), dSNF^1-101 as titrant (25 µM); 22 °C; 50 mM KCl, 100 mM arginine, 10 mM sodium cacodylate, pH 6.5 (methods) or pH 7 (results).
Data set [6] has as its target T2, dSNF1-96 (RRM1). The experiment in a line: crystal structure; 2.0 A; ITC: 150 mM KCl, 1 mM MgCl2, 20 mM HEPES-NaOH pH 7.5, 5% glycerol, 10 C; NMR: 50 mM KCl, 20 mM sodium cacodylate pH 6.5, 2 mM EDTA, 23 C; filter binding: KCl varied, other conditions not stated. As to conditions: protein: recombinant; tags: N-terminal His6, TEV-cleaved; hairpin, blunt, 10-nt loop.

On to GGCCGGCAUUGCACCACGCGCCGGGUCC (structured_RNA) [dU1SLII (T7, NMR)], for which the binding result in data set [1] is “binds”.
In the case of CCAGGACGCAUUGCACCUCGCGUCCUGG (structured_RNA) [dU1SLII (ITC)], in data set [2], the dissociation constant Kd (in general, the concentration at which binding is half-saturated) is 34 nM.
Regarding GGCCGGUAUUGCACUACCGCCGGGUCC (structured_RNA) [dU2SLIV G13C], in data set [3], the binding signal is 16 fold higher affinity than wt N6.
For CCAGGACGUAUUGCAGUACCGCGUCCUGG (structured_RNA) [dU2SLIV (ITC)], the Kd in data set [4] amounted to 782 nM.

B1: Drosophila melanogaster SNF RRM1, residues 1-101 (dSNF^1-101) (domain or fragment)
chain: T1 sequence
In data set [5], B1 had a Kd of 4.2 nM and a dH of -241 kcal/mol.
Take GGCCGGUAUUACAGUACCGCCGGGUCC (structured_RNA) [dU2SLIV G10A]: the binding signal in data set [3] is 1000 fold lower affinity than wt N6.
With GGCCGCAUUGCACCUCGCGGCC (structured_RNA) [dU1SLII 22-mer (crystal)], the binding result in data set [6] is recorded as “binds”.
On to GGCCGGUAUUGCAAUACCGCCGGGUCC (structured_RNA) [dU2SLIV G13A], for which the binding signal in data set [3] is 200 fold lower affinity than wt N6.
